Experiment: soluble on expression in E. coli; label from the status in PepcDB or PDB records

Soluble on expression in E. coli, not soluble:
MGSDKIHHHHHHMTVLHSVDFFPSGKAPVAIEPRLPQAAFPEHHHDFHEIVIVEHGTGIHVFNGQPYTISGGTVCFVRDHDRHLYEHTDNLCLTNVLWRSPDAFQFLAGLDQLLPQEQDGYYPSHWRVNQSVLQQVRQLVGLMERAGDGMDAPAVANREILFMQLLVLLRRSSLMEGATNNDAKLNQLMAWLEDHFAEEVCWEAVAEQFSLSLRTLHRQLKQHTGLTPQRYLNRLRLIKARHLLRHSDHSVTEIAYRCGFGDSNHFSTLFRREFNWSPRDIRQGRDAIIQ
MGSDKIHHHHHHMTVLHSVDFFPSGNASVAIEPRLPQADFPEHHHDFHEIVIVEHGTGIHVFNGQPYTITGGTVCFVRDHDRHLYEHTDNLCLTNVLYRSPDRFQFLAGLNQLLPQELDGQYPSHWRVNHSVLQQVRQLVAQMEQQEGENDLPSTASREILFMQLLLLLRKSSLQENLENSASRLNLLLAWLEDHFADEVNWDAVADQFSLSLRTLHRQLKQQTGLTPQRYLNRLRLMKARHLLRHSEASVTDIAYRCGFSDSNHFSTLFRREFNWSPRDIRQGRDGFLQ
MGSDKIHHHHHHMTVRDFHYYEPAEGHGLSHNPLNALVAPRPIGWISSRDAQGRVNLAPYSFFNAFNYDPPIIGFSSIAWKDSVQNASETREFTWNLVTRELGDQMNQTSSPLPHGEDEFQFAGLTAVAGRKVNVPRVGESRAAMECKVIDIVQFRNTAGEKVGGWLVLGEVVAVYIDKTLLKDGVYQTAEAYPIMRSGGLNDYVQVSPDNVFQIARLAGASSPSSHGKG
MGSDKIHHHHHHMTYTSLQSPADKDYLYDIRVAHLYGNLLNTYGDNGNVLMLKYVGEKLGIRMTFDIVSIGDDFDANKYDMVFFGGGQDYEQSIVAKDLPNKRSAIASFIQNNKVVLAICGGFQLLGQYYVQANGVRIDGIGVMGHYTLNQKDNRYIGDIKIHNDEFNETYYGFENHQGRTFLSDDEKPLGRVIYGNGNNKEDGSEGVHYKNVFGSYFHGPILSRNANLAYRLVTTALHNKYGIDIQLPRYEDILSLEVAEEYGDVKSKAEFEK
MGSDKIHHHHHHMVASKQGLDLFQASGEPYEIGYRLGELARPVFAGYMRQSRAWQAVRRWRGAPFVHKLREAAHAHFPALLVELDGMAAGLGWTAEDMFLWNCRGELIHNVPDGCTTLAAHVGDTRFIAHNEDGDPFLGERCALVEVRPAGKPGFVSFHYPGSLPGHTFAASRAGVVQAINNLRIRAPVAGVPRMILARAVLDAASLDEALHILRDTPAASGFHHTLGCAGDARLVSVEVSARRCSVQTVPNLYGHANHMIHPGCEAEAQIVTDSSRERQARVNALLPALSRPLQPAALLDVLQDRAPSGLPIYRDDPLDPDGENTLATALFEIGGAGVSMKVYRQGQRAFDAFIARAACGQTGA
MGSDKIHHHHHHMVGENMDIFVSDYEKQYKEILTGFDPTTFSETWVENQQWQLDFYVEKTRNNQDVFDLLNHESSVYLDGQEFVVKQLKRGAVGKIVYSEVTATHIYFTMQDDYQYNAISGSKSAKDCLTHIFAADKQGFSFELIDKNKVLENITQENFGNGNLLKLVQEVLEDYKLVMLADNKRLTFIPSEDYGEHTENEIRYNKHTNEVDFDIDTLSLRTQIKGYGKVDSNGNNYFPPVTFTSPESAKWGVRIQEPLSDERYTTSSSMLRRLKLELQDYPATTGNISLKLKYECGKGDYVMFVYEPLGLLYEVQIVAYKKYIFTNKPPELTLSNNKKTMVSIMVQLAKAIKRGAK
MGSDKIHHHHHHMVGMLERTIAGLQRNNMAGYFVHNRQELMALLSGLMEKGQTVGCGDSVTLEELGVFDFLRKGDYIFYDKYVPGLTSEDKRRLYIQNFAADTFITGTNAVTTDGKLFNIDGNGSRVAPMIYGPRQVIVVVGTNKITEDVESAIQRVRQIAAPMDAKRLKKETPCTKLNRCVDCRHPQRICNDFVLITGQFVKDRIKVIIIDMEIGY
MGSDKIHHHHHHMVIIHSKDLVNWTIKGHVVSDLRQISEEMNWTRMNRYGRGIWAGAIRYYQGKFYVYFGTPDEGYFMSTATDPAGPWEPLHCVKAEKGWDDCCPFFDDDGQLYFVGTHFADKYKTYLYRMTPDGKTLIENSKILINEGYGREASKLYKINGTYYHFFSEVKNGGRYIMMQRSSSITGPYLERKQLSHVQREYNEPNQGGLVEGPDRKWYFFTHHGTGDWAGRIASLLPVYWVDGWPIIGEVGQDGIGTMVWQAAKPSNEYPVRTPQSSDDFSKSVLSPQWEWNYQPRDEMWSLTERPGNLRLKAFRPLVTDNLLKAGNTLTQRCFRTNKNEVIVKMNIEGMVDGQKAGLCHYSKSYAMVGVRQSGKDRNLEFQTNKEKITGPAIKGNKVWIKSVWGLDGKSQFSYSTDGRKFTPFGEVYQLEWGYYRGSRIGIYCFNNIADAGYIDVDEFIYLY
MGSDKIHHHHHHMVILHIIAGLEKGGAESTLKRLCLNGTEHEHVVVSLSTLGSVGLELQKAGVKVYCLDIRPSITSVAAIFRLYKIIKLRKPSVVQTWMYHADLVGGIVSRVAGVKKIYWGVHHTYLIKGQSKRVTIFISRINSVLSHFIPTKIVYCANSARVAQEKIGYNKKSGIVIFNGYDTSKFKRDLKLRSVYREKLGLKETDFVIGHVGRYDSLKDYPNLINAIRKVKYKVGGLKVILVGAGLSKDNRELLNVISESTLISKFHLLGPSDDIPGIMNAIDVFVLSSSSEAFPNVLNEAMACGTPCVSTDVGDASAIVGMTGWLSAAGDSSALAEKIYAAYKEFSENKANWEERQYSCRERIVTNFSSQSMVSNYTLLWQS
MGSDKIHHHHHHMVKTNVTIMRGGTSKGVFFHESAMPNNKNEWEPFLLDVMGSPDKRQIDGLGGGNSLTSKVAIIKKAYTSDIDVHYTFGQVSISEEKVDFKGNCGNISAAVGPFAIEEGLVKAKEPMTAVRILNTNTNKMIIAEVEVEDGQVKYDGDVTISGVPGSGSPIYLNFHDAAGSVTGHLLPTGNSSEFLDTSQGQIEVSIIDYANPLVFVEASSIGLDGTELAEEFTDLQLAQFEELRSIAAEKCGFASRFSATKLSPAVPKLAIVAKPEKYKDSTGAWHSSVEMDLHIRMMSMQKSHQALAVTGAICTTRALSVEGAIPARIAKNHSTKVRLAHSSGIIETMVEPTGIKIVRTARRIMDGTVYTHGDYQMM
MGSDKIHHHHHHMVMERGEIIGIVLQKSEANEMQGLIRADEEISVGQLLLVDDSEKLSLVRVENYEFLNEFFDEKGEIAKSILKEPSIYEILDMNTIIKATLHLIKKYDHNTTPKPGSFVRRLPEIKSEKELLSFYGIKNKKGLIEYGALAGSEIPLLLDLNAITMHMGVFGETGSGKSYNMRYLIKLLSNIKIGDKITALPMIVIDANGDYIDLASTNLDIVSKGRGWIKRYILKDPKEQNDIKLTIDLSIFTPRELSEFIMSLKYGEASYNTLQLNFLEQVLANHESKEYNTLLGSAIGIETLRNEILTMAQNKDIGITTGTARGIASALEIFKNKVISRLQLVNSSASLTENTLEVIWRNRGLAIIDFSADGSPGVDVLTKQLIVSYITRLIFNYLTRSKYNGNQRFLGFVIEEAQNYIPSIDYPVNANLTKDVLVTLATQGRKFGASLILVSQRPAFIDKYVLSMINTFFFHRIYHEDVRYVMSASGGLPESLTKNLTSLDTGYVIVSGLMSIMKSPALVRIPWDPRLGSYAGNVERIDLILSEG
MGSDKIHHHHHHMVNSLTTPEPQTLKPGVKAPVQETLLTPRFYTTDFDAVANLDISANEAEIRAVVEELRADYNRHHFVRDEEFKQSWDHITGEKRRAFIDFLERSCTSEFSGFLLFKELSRRIKSRNPLLAEAFEFMARDEARHAGFLNKSMSDLNLSLDLNYLTKNRTYTFFPPEWVIYTVYLSEKIGYWRYILVHQHMQEHPEYQFYPLFRKFESWCQDENRHGDFFKALLRSQPQLWKNWKARLWVRFFLLTVFVTHTMTVFERASFYESIGIHPRKYNNRVIQETNNTSARAFPLILNTNHPLFFWRLEQCWENNMKLAAIKNNKLPNFVKFFQRIPPATAIFWNMLRLFLIKPIDTEATRGTVL
MGSDKIHHHHHHMVVILSERAFSRRDQTGAEVMLNRRRFLTNAATAAAATLWVSKGGMQARAEEAGNGSPWRRFEIITKVDLQPAEGPAQLWLPVVRSAGDYQKADAPLWVSNSTDIRMEKDPSSGADILRVMWEDEPRRVIEVTQHVATRDRRVTSKIAATEAELQHELRGTPSMPVDGIVKTTAMRIVEGRDRAEDRARAIYDWVIDNTFRDANIDGCGVGNARDMLETGYFGGKCADISSLFVSLARAAGLPARDVFGIRVADSADFKSLGRSGDITKAQHCRAEVYLDAHGWVPVDPADVRKVVLEENLPLDNPAVRAFREKAYGNWEMNWVGYNTARDLVLPGGELRQGFLMYPAAVTSRGELDCLNPQTFAYSITSREITA
MGSDKIHHHHHHMVVLMTKPGTSDFVWNGIPLSMELNLWNIKEYSGSVAMKFDGEKITFDADIQNLSPKEPERYVLGYPEFYYGYKPWENHTAEGSKLPVPVSSMKSFSVEVSFDIHHEPSLPLNFAMETWLTREKYQTEASIGDVEIMVWFYFNNLTPGGEKIEEFTIPFVLNGESVEGTWELWLAEWGWDYLAFRLKDPVKKGRVKFDVRHFLDAAGKALSSSARVKDFEDLYFTVWEIGTEFGSPETKSAQFGWKFENFSIDLEVRE
MGSDKIHHHHHHMWIWQQADWPKFHWNTSSIDALLRQVYFNQGQLLGKQMLSHDDSLLTSDAALDTLLANIIHSSAIEGEKLNAASVRSSLAKKLGVTEDKPYPTTAQTDGLADIMLDALKNLETELTLERILGWHQQLFPQGYTLFNPVIGGTLRGDTPMQVVSGRIDKPTVHFEAPSRATLDAELSQFIEWFNASRQDLGLDPLIRAAITHLWFVTLHPLDDGNGRITRLLTDLALAQAEKRSIRFYAMSVSILARRQAYYDILESTQRGDVDITPWLVWFFETLNDCLLNAMADVSRTLSKTQYWQSVDQSLLSQEQAKVLNRMLDGDFELGINSSQYQKVAKVSRATATRHLAQMVEQRFLVKADAGGRSTRYLLPSGK
MGSDKIHHHHHHMWTPDALSSEVRPYRQDVWRVVEAQSRASTMRLVDSLEEQRLLEDLIDEVKPPVPPSCRQFHYLLSTPFRYGPYPTGSRFRRAGQQDGVFYASESVETAIAELAFYRLLFFVESPGTDLPARPTDHMAFSVPCVADRLIDLTLPPLAQDEAKWVNRLDYTACQDLADIARSARIEAIRYRSVRDPDGGCNLGVLTPAALGATKPQRLETWRLFIRPTGIQVAREFPRAEREFTCADFGADPRLDPFWIRP
MGSDKIHHHHHHMYLALIGDIINSKQILERETFQQSFQQLMTELSDVYGEELISPFTITAGDEFQALLKPSKKVFQIIDHIQLALKPVNVRFGLGTGNIITSINSNESIGADGPAYWHARSAINHIHDKNDYGTVQVAICLDDEDQNLELTLNSLISAGDFIKSKWTTNHFQMLEHLILQDNYQEQFQHQKLAQLENIEPSALTKRLKASGLKIYLRTRTQAADLLVKSCTQTKGGSYDF
MGSDKIHHHHHHMYLESIELYSNITKAAAHLFISQPYLSKVIKQLENELEIKLIQSQGHQTFLTYAGQRYLFYLKEIDMIERQMAKELYLIRSDKKGEITLGINSGLASSILANVLPKFNLEHPEISVKLLENNQNISEQLVASGDIDLAVGMAPILYKDGIASTTIYRDELFLMIPTTSQLYNAEKRGQIIPFEYPISVLDNEPLILTPLEYGIGKTIAQFYELHHMSLNQMITTSTVPTAASLSLSGMGATFVPQTLIHRYLDKECNVYHFHKNKLFSEYIMIYKKDVELSGIALLLYKAFLTK

Source: the DeepSol protein solubility set
